{"source": "patent US20210275695A1", "about": "(CASE WESTERN RESERVE UNIVERSITY, published 2021)", "key": {"[1]": {"biological_target": "extradomain-B fibronectin (EDB-FN), human, as secreted or deposited by human cancer cells and in human tumour tissue (human) (UniProt P02751)", "sequence (P02751 32-2477)": "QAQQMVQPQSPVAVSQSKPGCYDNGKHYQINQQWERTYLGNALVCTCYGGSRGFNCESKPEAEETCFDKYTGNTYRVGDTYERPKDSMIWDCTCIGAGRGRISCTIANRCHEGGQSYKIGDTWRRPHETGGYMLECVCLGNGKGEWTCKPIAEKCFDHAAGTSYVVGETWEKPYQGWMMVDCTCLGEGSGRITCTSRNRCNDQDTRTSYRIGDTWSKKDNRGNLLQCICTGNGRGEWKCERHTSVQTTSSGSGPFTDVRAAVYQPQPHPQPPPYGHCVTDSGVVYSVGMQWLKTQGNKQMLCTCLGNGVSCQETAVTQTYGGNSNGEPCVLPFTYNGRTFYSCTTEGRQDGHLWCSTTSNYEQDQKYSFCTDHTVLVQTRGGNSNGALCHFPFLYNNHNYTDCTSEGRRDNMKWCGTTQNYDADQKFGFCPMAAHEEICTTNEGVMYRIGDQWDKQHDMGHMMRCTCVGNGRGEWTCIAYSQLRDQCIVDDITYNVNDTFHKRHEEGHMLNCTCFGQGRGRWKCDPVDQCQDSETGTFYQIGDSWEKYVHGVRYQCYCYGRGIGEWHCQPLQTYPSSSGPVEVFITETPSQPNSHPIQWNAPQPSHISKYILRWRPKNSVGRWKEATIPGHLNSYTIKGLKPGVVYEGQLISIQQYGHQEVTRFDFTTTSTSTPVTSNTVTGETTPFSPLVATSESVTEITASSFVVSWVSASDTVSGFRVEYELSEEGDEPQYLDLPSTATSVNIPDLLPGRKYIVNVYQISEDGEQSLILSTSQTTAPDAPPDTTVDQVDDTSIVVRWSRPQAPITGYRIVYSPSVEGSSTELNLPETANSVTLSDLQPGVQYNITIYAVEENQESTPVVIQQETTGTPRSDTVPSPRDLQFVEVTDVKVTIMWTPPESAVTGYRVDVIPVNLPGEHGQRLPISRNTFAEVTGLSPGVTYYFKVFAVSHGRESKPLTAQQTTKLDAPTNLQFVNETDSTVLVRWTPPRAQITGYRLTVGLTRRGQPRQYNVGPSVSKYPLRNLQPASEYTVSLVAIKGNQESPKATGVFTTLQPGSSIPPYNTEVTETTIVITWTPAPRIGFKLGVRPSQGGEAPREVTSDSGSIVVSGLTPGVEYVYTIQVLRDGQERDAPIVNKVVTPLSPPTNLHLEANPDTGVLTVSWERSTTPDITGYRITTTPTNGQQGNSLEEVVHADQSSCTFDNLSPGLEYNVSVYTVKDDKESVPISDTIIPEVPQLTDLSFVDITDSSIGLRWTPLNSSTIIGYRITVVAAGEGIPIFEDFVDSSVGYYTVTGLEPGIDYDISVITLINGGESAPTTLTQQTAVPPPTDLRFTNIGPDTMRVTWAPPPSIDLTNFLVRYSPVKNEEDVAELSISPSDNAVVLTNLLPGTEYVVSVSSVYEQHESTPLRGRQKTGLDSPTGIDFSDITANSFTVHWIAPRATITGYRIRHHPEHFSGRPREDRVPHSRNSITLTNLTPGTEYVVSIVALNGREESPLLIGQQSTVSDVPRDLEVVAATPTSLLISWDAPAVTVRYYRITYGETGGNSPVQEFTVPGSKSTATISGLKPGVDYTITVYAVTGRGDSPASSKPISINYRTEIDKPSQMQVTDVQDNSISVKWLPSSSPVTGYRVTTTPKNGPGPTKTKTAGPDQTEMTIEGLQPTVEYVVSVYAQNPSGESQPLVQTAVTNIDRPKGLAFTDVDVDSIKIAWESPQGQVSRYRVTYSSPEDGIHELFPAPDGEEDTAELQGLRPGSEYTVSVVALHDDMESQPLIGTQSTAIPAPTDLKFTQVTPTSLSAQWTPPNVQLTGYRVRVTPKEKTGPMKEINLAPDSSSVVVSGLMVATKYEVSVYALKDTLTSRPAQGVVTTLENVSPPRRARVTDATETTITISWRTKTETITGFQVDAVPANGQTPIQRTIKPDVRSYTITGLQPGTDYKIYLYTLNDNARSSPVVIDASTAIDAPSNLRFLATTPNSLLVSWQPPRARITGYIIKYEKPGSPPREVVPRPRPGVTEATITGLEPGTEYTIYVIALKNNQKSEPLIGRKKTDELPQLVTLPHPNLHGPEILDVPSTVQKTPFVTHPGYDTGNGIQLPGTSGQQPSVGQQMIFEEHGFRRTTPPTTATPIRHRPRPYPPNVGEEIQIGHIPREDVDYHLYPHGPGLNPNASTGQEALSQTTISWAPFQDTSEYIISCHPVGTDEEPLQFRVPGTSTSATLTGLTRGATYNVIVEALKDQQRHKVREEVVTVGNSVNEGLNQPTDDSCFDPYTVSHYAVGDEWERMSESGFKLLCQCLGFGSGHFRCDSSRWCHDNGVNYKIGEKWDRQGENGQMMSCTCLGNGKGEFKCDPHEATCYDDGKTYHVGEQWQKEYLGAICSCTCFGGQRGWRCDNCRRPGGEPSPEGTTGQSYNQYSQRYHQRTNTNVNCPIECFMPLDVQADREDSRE", "assay": "histogram of Cy5 pixel intensities of ZD2-Cy5 staining (5 µM) of a human prostate tumor section, GS=7"}, "[2]": {"biological_target": "extradomain-B fibronectin (EDB-FN), human, as secreted or deposited by human cancer cells and in human tumour tissue (human) (UniProt P02751)", "assay": "histogram of Cy5 pixel intensities of ZD2-Cy5 staining (5 µM) of a human prostate tumor section, GS=9"}, "[3]": {"biological_target": "extradomain-B fibronectin (EDB-FN), human, as secreted or deposited by human cancer cells and in human tumour tissue (human) (UniProt P02751)", "assay": "histogram of Cy5 pixel intensities of ZD2-Cy5 staining (5 µM) of a human prostate BPH section, tissue with low EDB-FN"}, "[4]": {"biological_target": "T1, EDB fragment (extradomain B of fibronectin), expressed in E. coli with an N-terminal 10xHis tag (UniProt P02751 1266-1356)", "T1 construct": "domain: EDB; also called EDB protein; purified EDB; not shown: N-terminal 10xHis tag from the pQE-T7-1 vector", "T1 sequence (P02751 1266-1356)": "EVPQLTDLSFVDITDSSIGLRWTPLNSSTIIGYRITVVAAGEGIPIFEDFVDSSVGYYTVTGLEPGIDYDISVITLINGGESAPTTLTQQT", "assay": "SPR (Biacore T100), EDB protein immobilised on a CM5 chip, Scatchard plot", "experimental": "The ZD2 peptide sequence, TVRTSAD (SEQ ID NO: 1), was synthesized in solid phase using Fmoc chemistry. A short spacer, Fmoc-9-amino-4,7-dioxanonanoic acid (Fmoc-NH-PEG₂-CH₂CH₂COOH), and 5-hexynoic acid, were also sequentially conjugated in solid phase followed by trifluoroacetic acid (TFA) treatment, which yielded ZD2-PEG-propargyl. Azido-Gd(HP-DO3A) was synthesized as reported previously. Click chemistry reaction between ZD2-PEG-propargyl (1 Eq) and azido-Gd(HP-DO3A) (1.1 Eq) was performed in a 2:1 mixture of t-butanol and water under nitrogen following addition of [Cu(MeCN)₄]PF₆ (0.02 Eq) and TBTA (Tris[(1-benzyl-1H-1,2,3-triazol-4-yl)methyl]amine, 0.02 Eq). The final product, named ZD2-Gd(HP-DO3A), was purified by high performance liquid chromatography (HPLC) on an Agilent 1100 HPLC system equipped with a semi-preparative C18 column. […] The Gd(III) content was measured by inductively coupled plasma optical emission spectroscopy (ICP-OES Optima 3100XL, Perkin-Elmer, Norwalk, Conn.). […] Sensorgrams generated from the binding between contrast agents and EDB were recorded with Biacore T100 (GE healthcare, Waukesha, Wis.), and analyzed using Scatchard plot. Affinity was calculated by fitting data into a linear line, with the slope of the line representing −1/Kd."}, "[5]": {"biological_target": "T1, EDB fragment (extradomain B of …)", "assay": "phage display, four rounds of panning on immobilised purified EDB fragment", "experimental": "The Ph.D C7C library (New England Biolabs, Beverly, Mass., USA) was used for screen EDB specific nonapeptides. Candidate peptides were selected by carrying out panning procedures for 4 rounds. In each round, purified EDB fragment (100 μg/ml) was immobilized on non-treated 96-well plates (Corning Costar, Tewksbury, Mass., USA) with overnight coating at 4° C. 0.5% BSA was used to block non-specific binding (1 hr, room temperature) followed by incubating with phages for 1 hr at room temperature. Extensive washing with PBST (0.1%, 0.3%, 0.5% […], respectively, for round 1-3) was used to remove non-binding phages before eluting bound phages by 0.1M Glycine-HC (pH 2.2) and neutralizing with Tris-HCl (pH 9.1). Eluted phages are tittered and amplified with E. coli (ER2758) according to the user's manual. Amplified phages in medium were purified by ultrafiltration and PEG/NaCl precipitation. At the end of round 4, properly diluted phages were cultured on LB/IPTG/Xgal plates and DNA from 29 randomly picked blue plaques were used for sequencing with supplied primers (New England Biolabs). Peptide sequences were resulted from translating of corresponding DNA sequences.\nThe Ph.D C7C library (New England Biolabs, Beverly, Mass.) was used to screen for EDB-specific cyclic nonapeptides. Candidate peptides were selected by panning for four rounds. […]"}, "[6]": {"biological_target": "T1, EDB fragment (extradomain B of …)", "assay": "ELISA, HRP-conjugated peptide on EDB protein"}, "[7]": {"biological_target": "T2, EDA (extradomain A of fibronectin) (UniProt P02751 1722-1811, limits assumed)", "T2 construct": "domain: EDA", "T2 sequence (P02751 1722-1811 limits assumed)": "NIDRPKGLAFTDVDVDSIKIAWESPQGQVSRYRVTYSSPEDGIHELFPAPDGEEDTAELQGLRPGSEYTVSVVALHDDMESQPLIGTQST", "assay": "ELISA, HRP-conjugated peptide"}}, "note": "Bridges are numbered along the chain shown (N, C = ends). Where no end group is shown, it is not given here. Side-chain parts run from the residue outwards. maleimide = maleimide group that reacts with the cysteine thiol to conjugate the peptide to the carrier (horseradish peroxidase); Gd(HP-DO3A) (azide, via triazole) = azido-Gd(HP-DO3A) gadolinium chelate, click-linked through a triazole; sulfo‑Cy5 = sulfo-cyanine 5 fluorescent label; HRP = horseradish peroxidase; PEG3 = NCCOCCOCCOCCC(=O)O", "data": [{"binder": "{sulfo‑Cy5-PEG3}-CTVRTSADC-OH (disulfide 1-9)", "note": "[ZD2-Cy5 (cyclic ZD2 peptide … labelled with Cy5 through a short PEG linker)]", "values": [{"measurement": "percent pixel counts of Cy5 pixel value 50 to 255", "setting": "[1]", "result": 40, "unit": "%"}, {"measurement": "percent pixel counts of Cy5 pixel value 50 to 255", "setting": "[2]", "result": 72.2, "unit": "%"}, {"measurement": "percent pixel counts of Cy5 pixel value 50 to 255", "setting": "[3]", "result": 2.1, "unit": "%"}]}, {"binder": "{Gd(HP-DO3A) (azide, via triazole)-5‑hexynoic acid-9‑amino‑4,7‑dioxanonanoic acid}-TVRTSAD (also: Gd complex, also called ZD2-Gd(DO3A))", "note": "[ZD2-Gd(HP-DO3A) (linear ZD2 peptide TVRTSAD joined through PEG and a triazole to Gd(HP-DO3A))]", "values": [{"measurement": "Kd", "setting": "[4]", "result": 1700, "unit": "nM"}]}, {"binder": "CTVRTSADC (disulfide 1-9 (inferred); not fully specified, also called cyclic nonapeptide ZD2)", "note": "[cyclic ZD2 peptide (CTVRTSADC) as selected by phage display]", "values": [{"measurement": "binding result", "setting": "[5]", "result": "binds"}]}, {"binder": "CERAK (also: conjugated to HRP, 'similarly' to l-ZD2-HRP, Control peptide)", "note": "[CERAK-HRP]", "values": [{"measurement": "binding result", "setting": "[6]", "result": "no binding"}]}, {"binder": "H-TVRTSADC([maleimide-HRP])-OH", "values": [{"measurement": "binding result", "setting": "[7]", "result": "no binding"}]}]}
